Test results published in the Immune Epitope Database (IEDB).
pKd: −log10 of the molar value. Values belong to the sequence of their own block, whether it stands above or below them.

Legend:
HLA-A*02:06 = assay: IEDB peptide-MHC binding, purified MHC/competitive/fluorescence; filed as Kd, often an IC50 or EC50 that approximates it; ≥ and ≤ were set here for values at or beyond the usual limits of such assays
HLA-A*02:03 = assay: as above
HLA-A*02:11 [1] = assay: as above; settings: source organism: Pasteurella multocida subsp. multocida str. Pm70
HLA-A*02:12 = assay: as above; settings: source organism: Pasteurella multocida subsp. multocida str. Pm70
HLA-A*31:01 = assay: IEDB peptide-MHC binding, purified MHC/direct/fluorescence; filed as Kd, often an IC50 or EC50 that approximates it; ≥ and ≤ were set here for values at or beyond the usual limits of such assays
HLA-A*26:01 = assay: as above
HLA-B*27:05 = assay: as above
HLA-B*58:01 = assay: as above
HLA-A*01:01 [2] = assay: as above
HLA-A*11:01 = assay: as above
HLA-B*40:01 = assay: as above
HLA-A*69:01 = assay: as above
HLA-A*24:03 = assay: as above
HLA-A*02:01 = assay: as above
HLA-B*08:01 = assay: as above
HLA-B*07:02 = assay: as above
HLA-A*03:01 = assay: as above
HLA-B*15:01 [3] = assay: as above
HLA-B*39:01 = assay: as above; settings: source organism: Bacillus cereus NVH0597-99
HLA-C*05:01 = assay: as above
HLA-A*02:11 [4] = assay: as above; settings: source organism: Bacillus cereus NVH0597-99
HLA-B*15:09 = assay: as above
HLA-B*44:02 = assay: as above
HLA-B*08:02 = assay: as above
HLA-A*24:02 = assay: as above
HLA-B*46:01 = assay: as above
HLA-B*18:01 [5] = assay: as above; settings: source organism: Influenza A virus (A/Viet Nam/HN/2004(H5N1))
HLA-B*15:17 = assay: IEDB peptide-MHC binding, purified MHC/competitive/fluorescence; filed as Kd, often an IC50 or EC50 that approximates it; ≥ and ≤ were set here for values at or beyond the usual limits of such assays
HLA-A*26:02 = assay: as above
HLA-B*18:01 [6] = assay: as above
HLA-B*57:01 [7] = assay: IEDB peptide-MHC binding, purified MHC/direct/fluorescence; filed as Kd, often an IC50 or EC50 that approximates it; ≥ and ≤ were set here for values at or beyond the usual limits of such assays; settings: source organism: Influenza A virus
HLA-A*23:01 = assay: as above; settings: source organism: Influenza A virus
HLA-A*68:02 = assay: as above; settings: source organism: Influenza A virus
HLA-B*57:01 [8] = assay: IEDB peptide-MHC binding, purified MHC/competitive/fluorescence; filed as Kd, often an IC50 or EC50 that approximates it; ≥ and ≤ were set here for values at or beyond the usual limits of such assays; settings: source organism: Human immunodeficiency virus 1
HLA-A*01:01 [9] = assay: as above; settings: source organism: Human immunodeficiency virus 1
HLA-A*30:01 = assay: as above; settings: source organism: Human immunodeficiency virus 1
HLA-B*15:01 [10] = assay: as above; settings: source organism: Human immunodeficiency virus 1
[11] = source organism: Pasteurella multocida subsp. multocida str. Pm70
[12] = source organism: Pasteurella multocida
[13] = source organism: H9N2 subtype Influenza A virus (A/swine/Korea/S81/2004(H9N2))
[14] = source organism: Influenza A virus (A/Puerto Rico/8/34/Mount Sinai(H1N1))
[15] = source organism: Influenza A virus(A/swine/Henan/3/2004(H9N2))
[16] = source organism: Influenza A virus (A/Viet Nam/HN/2004(H5N1))
[17] = source organism: Influenza A virus (A/ruddy turnstone/NJ/60/1985(N9))
[18] = source organism: Influenza A virus
[19] = source organism: Influenza A virus (A/tiger/Thailand/CU-LV/2004(H5N1))
[20] = source organism: Human immunodeficiency virus 1
[21] = source organism: Influenza A virus (A/equine/New York/1/1999(H3N8))
[22] = source organism: Influenza A virus(A/swine/Shandong/fNY/2003(H9N2))

- pKd (HLA-A*02:06; [11]): ≥ 10.00
- pKd (HLA-A*02:03; [11]): ≥ 10.00
- pKd (HLA-A*02:11 [1]): ≥ 10.00
- pKd (HLA-A*02:12): ≥ 10.00
- pKd (HLA-A*31:01; [12]): 5.59
- pKd (HLA-A*26:01; [12]): ≤ 4.70
- pKd (HLA-B*27:05; [12]): ≤ 4.70
- pKd (HLA-B*58:01; [12]): ≤ 4.70
- pKd (HLA-A*01:01 [2]; [12]): ≤ 4.70
- pKd (HLA-A*11:01; [12]): ≤ 4.70
- pKd (HLA-B*40:01; [12]): ≤ 4.70
- pKd (HLA-A*69:01; [12]): 7.77
- pKd (HLA-A*24:03; [12]): 4.94
- pKd (HLA-A*02:01; [12]): 7.33
- pKd (HLA-B*08:01; [12]): ≤ 4.70
- pKd (HLA-B*07:02; [12]): ≤ 4.70
- pKd (HLA-A*03:01; [12]): ≤ 4.70
- pKd (HLA-B*15:01 [3]; [12]): 5.11
Sequence: LMAEDLANV

Sequence: YNDWEGNEL
- pKd (HLA-B*39:01): 6.22
- pKd (HLA-C*05:01; source organism: Bacillus anthracis str. A0193): 7.02
- pKd (HLA-A*02:11 [4]): ≤ 4.70
- pKd (HLA-B*15:09; source organism: Bacillus cereus NVH0597-99): 5.41

Sequence: KAVRGDLNF
- pKd (HLA-A*31:01; [13]): ≤ 4.70
- pKd (HLA-B*27:05; [13]): ≤ 4.70
- pKd (HLA-B*58:01; [13]): 7.03
- pKd (HLA-A*01:01 [2]; [13]): ≤ 4.70
- pKd (HLA-A*11:01; [13]): ≤ 4.70
- pKd (HLA-B*40:01; [13]): ≤ 4.70
- pKd (HLA-A*69:01; [13]): ≤ 4.70
- pKd (HLA-B*44:02; [13]): ≤ 4.70
- pKd (HLA-B*08:02; source organism: Influenza A virus(A/swine/Shandong/fZC/2003(H9N2))): ≤ 4.70
- pKd (HLA-A*02:01; [13]): ≤ 4.70
- pKd (HLA-B*08:01; [13]): ≤ 4.70
- pKd (HLA-B*07:02; [13]): ≤ 4.70
- pKd (HLA-A*03:01; [13]): ≤ 4.70
- pKd (HLA-A*24:02; [13]): ≤ 4.70
- pKd (HLA-B*15:01 [3]; [14]): 6.03

Sequence: RRVRDNMTK
- pKd (HLA-A*26:01; [15]): ≤ 4.70
- pKd (HLA-B*27:05; [14]): 6.35
- pKd (HLA-B*58:01; [16]): ≤ 4.70
- pKd (HLA-B*46:01; [16]): ≤ 4.70
- pKd (HLA-A*01:01 [2]; [16]): ≤ 4.70
- pKd (HLA-A*11:01; [16]): ≤ 4.70
- pKd (HLA-B*40:01; [16]): ≤ 4.70
- pKd (HLA-A*69:01; [16]): ≤ 4.70
- pKd (HLA-B*18:01 [5]): ≤ 4.70
- pKd (HLA-B*44:02; [16]): ≤ 4.70
- pKd (HLA-B*08:02; [15]): ≤ 4.70
- pKd (HLA-A*02:01; [16]): ≤ 4.70
- pKd (HLA-B*08:01; [16]): ≤ 4.70
- pKd (HLA-B*07:02; [16]): ≤ 4.70
- pKd (HLA-A*03:01; [16]): ≤ 4.70
- pKd (HLA-A*24:02; [16]): ≤ 4.70
- pKd (HLA-B*15:01 [3]; [16]): ≤ 4.70

Sequence: DWSGYSGSF
- pKd (HLA-B*15:17; [17]): 5.91
- pKd (HLA-A*26:02; [17]): 5.46
- pKd (HLA-B*18:01 [6]; [17]): ≤ 4.70
- pKd (HLA-A*31:01; [18]): ≤ 4.70
- pKd (HLA-A*26:01; [19]): ≤ 4.70
- pKd (HLA-B*27:05; [18]): ≤ 4.70
- pKd (HLA-B*57:01 [7]): ≤ 4.70
- pKd (HLA-B*58:01; [18]): ≤ 4.70
- pKd (HLA-B*46:01; [18]): ≤ 4.70
- pKd (HLA-A*01:01 [2]; [18]): ≤ 4.70
- pKd (HLA-A*23:01): 6.76
- pKd (HLA-A*11:01; [18]): ≤ 4.70
- pKd (HLA-B*40:01; [18]): ≤ 4.70
- pKd (HLA-A*68:02): ≤ 4.70
- pKd (HLA-A*69:01; [18]): ≤ 4.70
- pKd (HLA-A*24:03; [19]): 7.14
- pKd (HLA-B*44:02; [18]): ≤ 4.70
- pKd (HLA-A*02:01; [18]): ≤ 4.70
- pKd (HLA-B*08:01; [18]): ≤ 4.70
- pKd (HLA-B*07:02; [18]): ≤ 4.70
- pKd (HLA-A*03:01; [18]): ≤ 4.70
- pKd (HLA-A*24:02; [18]): 7.06
- pKd (HLA-B*15:01 [3]; [14]): ≤ 5.00

Sequence: RSLYNTIATLY
- pKd (HLA-B*57:01 [8]): 6.89
- pKd (HLA-A*01:01 [9]): 5.78
- pKd (HLA-B*15:17; [20]): 9.15
- pKd (HLA-A*02:06; [20]): ≤ 4.70
- pKd (HLA-A*26:02; [20]): 6.04
- pKd (HLA-A*30:01): ≤ 4.70
- pKd (HLA-B*18:01 [6]; [20]): 6.93
- pKd (HLA-A*02:03; [20]): 6.14
- pKd (HLA-B*15:01 [10]): 6.99

Sequence: FFNVEIPEF
- pKd (HLA-C*05:01; source organism: human gammaherpesvirus 4): ≤ 4.70

Sequence: RELVRKTRF
- pKd (HLA-A*31:01; [21]): ≤ 4.70
- pKd (HLA-A*26:01; [22]): ≤ 4.70
- pKd (HLA-B*27:05; [21]): ≤ 4.70
- pKd (HLA-B*58:01; [21]): ≤ 4.70
- pKd (HLA-B*46:01; [21]): ≤ 4.70
- pKd (HLA-A*01:01 [2]; [21]): ≤ 4.70
- pKd (HLA-A*11:01; [21]): ≤ 4.70
- pKd (HLA-B*40:01; [14]): 6.46
- pKd (HLA-A*69:01; [21]): ≤ 4.70
- pKd (HLA-A*02:01; [21]): ≤ 4.70
- pKd (HLA-B*08:01; [21]): ≤ 4.70
- pKd (HLA-B*07:02; [21]): ≤ 4.70
- pKd (HLA-A*03:01; [21]): ≤ 4.70
- pKd (HLA-A*24:02; [21]): ≤ 4.70
- pKd (HLA-B*15:01 [3]; [14]): 5.80
- pKd (HLA-B*15:09; [22]): ≤ 4.70
